The target in data set [1] is von Willebrand factor (VWF), purified plasma-derived, multimeric, native (UniProt P04275). As to the kind of experiment: cell-based or functional assay.
The target is the same in data set [2]. As to the kind of experiment: SPR (BIAcore), VWF injected under flow over immobilised T5-8CUB, equilibrium fit.
Data set [3] shares this target.
The target is the same in data set [4]. As to the kind of experiment: SPR (BIAcore) under laminar flow. (Surface plasmon resonance follows binding to a sensor surface in real time, without labels.)
Data set [5] shares this target. As to the kind of experiment: microtiter plate binding (ELISA format, anti-V5 detection), VWF immobilised, static.
Data set [6] shares this target. As to the kind of experiment: SPR (BIAcore), VWF injected under flow over immobilised delCUB, equilibrium fit, no EDTA.
Data set [7] deals with von Willebrand factor pre-denatured with 1.5 M guanidine-HCl at 37 C for two hours (UniProt P04275). As to the kind of experiment: SPR (BIAcore), guanidine-HCl denatured VWF injected over immobilised delCUB, equilibrium fit.
The target in data set [8] is von Willebrand factor (VWF), purified plasma-derived, multimeric, native (UniProt P04275). The data set can be described thus: SPR (BIAcore), VWF injected under flow over immobilised delCUB, equilibrium fit, in the presence of 10 mM EDTA.
In data set [9] the target is von Willebrand factor pre-denatured with 1.5 M guanidine-HCl at 37 C for two hours (UniProt P04275). As to the kind of experiment: SPR (BIAcore), guanidine-HCl denatured VWF injected over immobilised MDTCS, equilibrium fit.
Data set [10] concerns the target von Willebrand factor (VWF), purified plasma-derived, multimeric, native (UniProt P04275). As to the kind of experiment: microtiter binding assay, immobilised vWF.
In data set [11] the target is recombinant vWF expressed in BHK cells overexpressing PACE/furin (UniProt P04275). The data set can be described thus: cell-based or functional assay.
Data set [12] addresses von Willebrand factor (VWF), purified plasma-derived, multimeric, native (UniProt P04275). As to the kind of experiment: SPR (BIAcore) under flow.
The target is the same in data set [13]. As to the kind of experiment: SPR (BIAcore), VWF injected under flow over immobilised T2-8CUB, equilibrium fit.

The record followed here is patent US20100144634A1 (published 2010).

In general, Kd refers to the free concentration of one partner at which half of the binding sites on the other are occupied at equilibrium, for simple one-to-one binding.

“ADAMTS13 TSP1 5-8 repeats plus CUB domains, N-terminal linker and Flag, C-terminal V5-His (from UniProt Q76LX8 884-1191; Q76LX8 1192-1427)”: in [1], the inhibition of proteolytic cleavage of VWF by ADAMTS13 under vortex-induced shear stress, fragment at 150 nM was 75%. Also, the Kd in data set [2] is 212 nM.

In the case of “ADAMTS13 variant truncated after the 8th TSP-1 repeat (lacking the CUB domains), C-terminal V5-His”, the “cleavage of VWF under vortex-induced mechanic shear stress” value in data set [3] was “A removal of the CUB domains (delCUB) or more (MDTCS) abrogates its ability to cleave VWF”.

“ADAMTS13 variant truncated after the 8th TSP-1 repeat (lacking the CUB domains), C-terminal V5-His (from UniProt Q76LX8 75-1191) (enzyme)”: the fold reduction in affinity against full-length ADAMTS13 in data set [4] was 5 fold. For the same molecule, the Kd in [5] turned out to be 70 nM; in data set [6], 274 nM; in [7], 242 nM; in data set [8] it was 468 nM.

Turning to “ADAMTS13 variant truncated after the spacer domain, C-terminal V5-His”, the “cleavage of VWF under vortex-induced mechanic shear stress” value in data set [3] is recorded as “A removal of the CUB domains (delCUB) or more (MDTCS) abrogates its ability to cleave VWF”.

Turning to “ADAMTS13 variant truncated after the spacer domain, C-terminal V5-His (from UniProt Q76LX8 75-685) (enzyme)”, the Kd was 56 nM in data set [5] and 337 nM in data set [9].

In the case of “B-domainless derivative of human factor VIII, FVIII-SQ (from UniProt P00451 20-762; P00451 1657-1667; P00451 1668-2351)”, in data set [1], the half-maximal effect on vWF proteolysis by ADAMTS13 worked out at 2.5 nM and the increase in vWF proteolysis by ADAMTS13 under shear stress was determined as 10 fold.

With “isolated light chain of FVIII (from UniProt P00451 1668-2351)”, in data set [1], the concentration of FVIII-LC achieving the half maximal rate enhancing effect (IC50) was determined as 2 nM and the increase of the maximal proteolytic cleavage product (˜350 kDa) with 5 nM FVIII-LC was in the range of 7 to 8 fold. For the same molecule, the Kd in data set [10] is 17 nM.

On to “recombinant human full-length coagulation factor VIII (from UniProt P00451 20-1667; P00451 1668-2351)”, for which, in data set [11], the half-maximal effect of FVIII on cleavage of rvWF by ADAMTS13 stood at 3 nM and the increase in product formation with rvWF as substrate in the presence of 20 nM FVIII came out at 10 fold. In [1], the Km of the enhancement of VWF cleavage by ADAMTS13 is 2 to 3 nM, the concentration of FVIII required for half maximal enhancement in product formation came to 3 nM, the enhancement of ADAMTS13 cleavage of plasma vWF (350K product) in the presence of 10-20 nM FVIII lay in the range of 10 to 12 fold and the half maximal effect of rFVIII on proteolytic cleavage of VWF by ADAMTS13 was determined as 2.9 nM.

B1: ADAMTS13 TSP1 2-8 repeats plus CUB domains, N-terminal linker and Flag, C-terminal V5-His (protein, not shown: small tags and cut ends)
chain: AAQPARRARRTKLALDTKDDDDKHVWTPVAWVWAAVRGPCSVSCGAGLRWVNYSCLDQARKELVETVQCQGSQQPPAWPEACVLEPCPPYWAVGDFGPCSASCGGGLRERPVRCVEAQGSLLKTLPPARCRAGAQQPAVALETCNPQPCPARWEVSEPSSCTSAGGAGLALENETCVPGADGLEAPVTEGPGSVDEKLPAPEPCVGMSCPPGWGHLDATSAGEKAPSPWGSIRTGAQAAHVWTPAAGSCSVSCGRGLMELRFLCMDSALRVPVQEELCGLASKPGSRREVCQAVPCPARWQYKLAACSVSCGRGVVRRILYCARAHGEDDGEEILLDTQCQGLPRPEPQEACSLEPCPPRWKVMSLGPCSASCGLGTARRSVACVQLDQGQDVEVDEAACAALVRPEASVPCLIADCTYRWHVGTWMECSVSCGDGIQRRRDTCLGPQAQAPVPADFCQHLPKPVTVRGCWAGPCVGQGTPSLVPHEEAAAPGRTTATPAGASLEWSQARGLLFSPAPQPRRLLPGPQENSVQSSACGRQHLEPTGTIDMRGPGQADCAVAIGRPLGEVVTLRVLESSLNCSAGDMLLLWGRLTWRKMCRKLLDMTFSSKTNTLVVRQRCGRPGGGVLLRYGSQLAPETFYRECDMQLFGPWGEIVSPSLSPATSNAGGCRLFINVAPHARIAIHALATNMGAGTEGANASYILIRDTHSLRTTAFHGQQVLYWESESSQAEMEFSEGFLKAQASLRGQYWTLQSWVPEMQDPQSWKGKEGT
B1: the inhibition of proteolytic cleavage of VWF by ADAMTS13 under vortex-induced shear stress, fragment at 150 nM in data set [1] was determined as 100%. The molecule further displayed a fold increase in affinity against T5-8CUB in [12] of 1.5 fold. For the same molecule, the equilibrium dissociation constant (Kd) in [13] turned out to be 140 nM.
